Test results published in patent US20160200782A1.

Columns and labels:
Assay in all cases: cell-based or functional assay
ROCK-II(h) (human) = ROCK-II(h) (human) (UniProt O75116)
PRK2(h) (human) = PRK2(h) (human) (UniProt Q16513)
PKCτ(h) (human) = biological target: PKCτ(h) (human)
Flt1(h) (human) = Flt1(h) (human) (UniProt P17948)
CaMKIδ(h) (human) = CaMKIδ(h) (human) (UniProt Q8IU85)
SRPK2(h) (human) = SRPK2(h) (human) (UniProt P78362)
MSSK1(h) (human) = MSSK1(h) (human) (UniProt Q9UPE1)
IKKβ(h) (human) = IKKβ(h) (human) (UniProt O14920)
Sequence of IKKβ(h) (human) (O14920 whole entry): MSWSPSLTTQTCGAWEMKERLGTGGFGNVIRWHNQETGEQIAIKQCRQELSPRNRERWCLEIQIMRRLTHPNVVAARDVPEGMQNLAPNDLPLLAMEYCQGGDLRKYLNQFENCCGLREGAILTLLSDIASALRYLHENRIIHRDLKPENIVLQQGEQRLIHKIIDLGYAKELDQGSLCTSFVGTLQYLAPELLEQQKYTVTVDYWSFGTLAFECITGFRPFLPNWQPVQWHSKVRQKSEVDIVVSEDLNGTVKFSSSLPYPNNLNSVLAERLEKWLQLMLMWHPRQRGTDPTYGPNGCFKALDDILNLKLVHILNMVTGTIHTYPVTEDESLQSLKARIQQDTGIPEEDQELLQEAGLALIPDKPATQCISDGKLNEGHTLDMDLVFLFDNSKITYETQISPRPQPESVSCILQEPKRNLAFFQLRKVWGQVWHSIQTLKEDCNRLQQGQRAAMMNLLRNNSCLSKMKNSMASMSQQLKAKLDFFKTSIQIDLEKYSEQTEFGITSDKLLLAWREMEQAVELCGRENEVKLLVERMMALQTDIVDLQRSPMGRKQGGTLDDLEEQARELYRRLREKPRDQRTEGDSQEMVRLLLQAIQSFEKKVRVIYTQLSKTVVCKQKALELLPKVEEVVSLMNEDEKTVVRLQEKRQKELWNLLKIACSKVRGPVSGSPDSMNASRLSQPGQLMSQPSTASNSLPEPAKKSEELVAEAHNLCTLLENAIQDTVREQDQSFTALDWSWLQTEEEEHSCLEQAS

Met(Y1248C)(h) (human) = Met(Y1248C)(h) (human) (UniProt P08581)
Rsk2(h) (human) = Rsk2(h) (human) (UniProt P51812)
CDK5/p35(h) (human) = CDK5/p35(h) (human) (UniProt Q00535)
PKCµ(h) (human) = PKCµ(h) (human) (UniProt Q15139)
ACK1(h) (human) = ACK1(h) (human) (UniProt Q07912)
EphA7(h) (human) = EphA7(h) (human) (UniProt Q15375)
SIK(h) (human) = SIK(h) (human) (UniProt P57059)
CK1δ(h) (human) = CK1δ(h) (human) (UniProt P48730)
MuSK(h) (human) = MuSK(h) (human) (UniProt O15146)
PDGFRα(V561D)(h) (human) = PDGFRα(V561D)(h) (human) (UniProt P16234)
IR(h), activated (human) = IR(h), activated (human) (UniProt P06213)
Sequence of IR(h), activated (human) (P06213 1005-1310 limits assumed): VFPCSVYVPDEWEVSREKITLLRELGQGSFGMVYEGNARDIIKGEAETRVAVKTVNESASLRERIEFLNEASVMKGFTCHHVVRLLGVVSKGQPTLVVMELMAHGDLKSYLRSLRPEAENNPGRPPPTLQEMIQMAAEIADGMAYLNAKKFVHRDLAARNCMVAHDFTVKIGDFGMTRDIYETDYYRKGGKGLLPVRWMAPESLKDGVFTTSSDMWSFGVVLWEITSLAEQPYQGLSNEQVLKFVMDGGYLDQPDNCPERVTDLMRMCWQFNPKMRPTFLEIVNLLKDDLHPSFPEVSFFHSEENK

MEK1(h) (human) = MEK1(h) (human) (UniProt Q02750)
cKit(D816V)(h) (human) = cKit(D816V)(h) (human) (UniProt P10721)
PAK4(h) (human) = PAK4(h) (human) (UniProt O96013)
MSK2(h) (human) = MSK2(h) (human) (UniProt O75676)
Mnk2(h) (human) = Mnk2(h) (human) (UniProt Q9HBH9)
Sequence of Mnk2(h) (human) (Q9HBH9 whole entry): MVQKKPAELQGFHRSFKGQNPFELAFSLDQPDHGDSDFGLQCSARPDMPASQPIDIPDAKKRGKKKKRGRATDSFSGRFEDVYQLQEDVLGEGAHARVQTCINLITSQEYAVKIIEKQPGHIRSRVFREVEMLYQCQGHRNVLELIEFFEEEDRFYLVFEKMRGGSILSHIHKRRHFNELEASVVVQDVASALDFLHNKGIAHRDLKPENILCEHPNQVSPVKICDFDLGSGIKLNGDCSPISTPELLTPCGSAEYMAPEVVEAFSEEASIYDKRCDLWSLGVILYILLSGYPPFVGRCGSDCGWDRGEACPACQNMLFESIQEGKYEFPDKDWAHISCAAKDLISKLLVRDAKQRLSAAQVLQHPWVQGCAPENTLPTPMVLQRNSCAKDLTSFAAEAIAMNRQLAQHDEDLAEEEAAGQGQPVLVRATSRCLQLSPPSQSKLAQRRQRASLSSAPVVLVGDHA

Lck(h) (human) = Lck(h) (human) (UniProt P06239)
Sequence of Lck(h) (human) (P06239 whole entry): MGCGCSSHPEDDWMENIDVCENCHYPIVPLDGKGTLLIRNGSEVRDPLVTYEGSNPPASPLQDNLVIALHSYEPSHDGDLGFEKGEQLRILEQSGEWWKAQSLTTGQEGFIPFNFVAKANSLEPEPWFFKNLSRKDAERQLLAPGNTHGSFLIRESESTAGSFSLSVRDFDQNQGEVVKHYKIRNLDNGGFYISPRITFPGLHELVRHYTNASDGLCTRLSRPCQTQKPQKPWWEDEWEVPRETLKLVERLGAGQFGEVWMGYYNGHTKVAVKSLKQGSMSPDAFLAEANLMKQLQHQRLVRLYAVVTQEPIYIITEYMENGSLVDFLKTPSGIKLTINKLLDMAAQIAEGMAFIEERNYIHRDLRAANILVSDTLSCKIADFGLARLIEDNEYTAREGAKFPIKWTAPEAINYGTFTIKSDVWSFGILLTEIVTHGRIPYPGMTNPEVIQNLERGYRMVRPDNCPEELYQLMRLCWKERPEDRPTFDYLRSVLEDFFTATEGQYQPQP

CSK(h) (human) = CSK(h) (human) (UniProt P41240)
Sequence of CSK(h) (human) (P41240 whole entry): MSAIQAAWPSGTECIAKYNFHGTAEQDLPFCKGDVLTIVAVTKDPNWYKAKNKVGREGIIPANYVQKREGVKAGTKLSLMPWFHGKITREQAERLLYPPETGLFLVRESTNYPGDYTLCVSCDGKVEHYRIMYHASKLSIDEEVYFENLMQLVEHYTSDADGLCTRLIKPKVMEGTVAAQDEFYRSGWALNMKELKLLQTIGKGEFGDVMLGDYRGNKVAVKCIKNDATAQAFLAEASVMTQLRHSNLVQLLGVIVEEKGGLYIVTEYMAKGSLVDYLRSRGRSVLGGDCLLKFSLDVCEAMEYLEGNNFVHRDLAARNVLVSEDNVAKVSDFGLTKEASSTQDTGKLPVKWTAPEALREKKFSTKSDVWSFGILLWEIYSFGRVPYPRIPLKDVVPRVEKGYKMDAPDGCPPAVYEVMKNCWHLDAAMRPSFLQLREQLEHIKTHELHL

[1] = biological target: EGFR(T790M,L858R)(h) (human) (UniProt P00533)
GRK7(h) (human) = GRK7(h) (human) (UniProt Q8WTQ7)
CK2(h) (human) = biological target: CK2(h) (human)
Rsk1(h) (human) = Rsk1(h) (human) (UniProt Q15418)
Sequence of Rsk1(h) (human) (Q15418 whole entry): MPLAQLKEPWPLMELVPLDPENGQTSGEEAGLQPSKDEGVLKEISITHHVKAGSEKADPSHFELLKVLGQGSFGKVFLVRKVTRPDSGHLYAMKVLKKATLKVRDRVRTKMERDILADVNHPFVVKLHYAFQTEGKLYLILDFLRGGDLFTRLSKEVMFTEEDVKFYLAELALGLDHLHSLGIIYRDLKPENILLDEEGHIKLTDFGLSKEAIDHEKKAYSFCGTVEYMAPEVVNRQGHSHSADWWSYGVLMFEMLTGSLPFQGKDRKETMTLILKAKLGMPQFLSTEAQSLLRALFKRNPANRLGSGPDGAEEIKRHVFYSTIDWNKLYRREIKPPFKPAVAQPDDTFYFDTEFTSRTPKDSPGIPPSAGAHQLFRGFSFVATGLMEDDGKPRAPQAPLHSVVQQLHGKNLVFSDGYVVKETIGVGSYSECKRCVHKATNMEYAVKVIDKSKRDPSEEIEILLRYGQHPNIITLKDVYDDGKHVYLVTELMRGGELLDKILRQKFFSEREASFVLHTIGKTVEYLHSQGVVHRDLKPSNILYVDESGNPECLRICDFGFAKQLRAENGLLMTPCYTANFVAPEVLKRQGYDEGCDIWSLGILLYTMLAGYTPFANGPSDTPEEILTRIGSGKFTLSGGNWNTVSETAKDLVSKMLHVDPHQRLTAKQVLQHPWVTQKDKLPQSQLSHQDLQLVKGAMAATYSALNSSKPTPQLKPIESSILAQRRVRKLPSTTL

GCK(h) (human) = GCK(h) (human) (UniProt Q12851)
Plk3(h) (human) = Plk3(h) (human) (UniProt Q9H4B4)
PKCβII(h) (human) = PKCβII(h) (human) (UniProt P05771)
Fes(h) (human) = Fes(h) (human) (UniProt P07332)
FGFR2(h) (human) = FGFR2(h) (human) (UniProt P21802)
Sequence of FGFR2(h) (human) (P21802 456-770 limits assumed): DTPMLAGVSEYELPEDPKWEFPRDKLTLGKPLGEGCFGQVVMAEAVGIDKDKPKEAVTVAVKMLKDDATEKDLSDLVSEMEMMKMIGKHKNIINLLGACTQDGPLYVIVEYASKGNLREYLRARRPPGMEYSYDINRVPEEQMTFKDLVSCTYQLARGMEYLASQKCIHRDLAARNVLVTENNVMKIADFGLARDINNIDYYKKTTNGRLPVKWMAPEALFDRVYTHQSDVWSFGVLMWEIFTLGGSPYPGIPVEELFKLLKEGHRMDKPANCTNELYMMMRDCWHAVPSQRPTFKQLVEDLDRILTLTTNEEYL

FAK(h) (human) = FAK(h) (human) (UniProt Q05397)
Bmx(h) (human) = Bmx(h) (human) (UniProt P51813)
PTK5(h) (human) = PTK5(h) (human) (UniProt P42685)
TAO2(h) (human) = TAO2(h) (human) (UniProt Q9UL54)
CDK2/cyclinE(h) (human) = CDK2/cyclinE(h) (human) (UniProt P24941)
Ros(h) (human) = Ros(h) (human) (UniProt P08922)
SGK3(h) (human) = SGK3(h) (human) (UniProt Q96BR1)
cKit(V654A)(h) (human) = cKit(V654A)(h) (human) (UniProt P10721)
CDK5/p25(h) (human) = CDK5/p25(h) (human) (UniProt Q00535)
ULK2(h) (human) = ULK2(h) (human) (UniProt Q8IYT8)
Ab1(H396P)(h) (human) = Ab1(H396P)(h) (human) (UniProt P00519)
Lck(h) activated (human) = Lck(h) activated (human) (UniProt P06239)
Sequence of Lck(h) activated (human) (P06239 whole entry): as the sequence (P06239 whole entry) above

Ret(h) (human) = Ret(h) (human) (UniProt P07949)
PKCθ(h) (human) = PKCθ(h) (human) (UniProt Q04759)
MELK(h) (human) = MELK(h) (human) (UniProt Q14680)
mTOR/FKBP12(h) (human) = mTOR/FKBP12(h) (human) (UniProt P42345)
Pim-2(h) (human) = Pim-2(h) (human) (UniProt Q9P1W9)
PAK5(h) (human) = PAK5(h) (human) (UniProt Q9P286)
EphA8(h) (human) = EphA8(h) (human) (UniProt P29322)
Sequence of EphA8(h) (human) (P29322 564-1005 limits assumed): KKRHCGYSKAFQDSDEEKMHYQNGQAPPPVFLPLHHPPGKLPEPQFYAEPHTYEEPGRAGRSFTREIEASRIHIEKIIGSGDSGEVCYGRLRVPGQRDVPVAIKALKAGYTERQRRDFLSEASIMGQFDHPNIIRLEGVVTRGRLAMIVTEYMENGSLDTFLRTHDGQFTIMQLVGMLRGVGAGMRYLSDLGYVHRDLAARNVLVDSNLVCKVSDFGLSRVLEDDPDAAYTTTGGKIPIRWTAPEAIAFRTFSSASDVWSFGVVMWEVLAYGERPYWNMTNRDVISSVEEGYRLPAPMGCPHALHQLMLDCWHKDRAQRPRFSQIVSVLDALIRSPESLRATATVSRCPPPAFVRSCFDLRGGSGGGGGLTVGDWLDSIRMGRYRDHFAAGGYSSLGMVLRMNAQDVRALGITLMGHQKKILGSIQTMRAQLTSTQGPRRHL

mTOR(h) (human) = mTOR(h) (human) (UniProt P42345)
PKBγ(h) (human) = PKBγ(h) (human) (UniProt Q9Y243)
EphB4(h) (human) = EphB4(h) (human) (UniProt P54760)

Sequence of CaMKIδ(h) (human) (Q8IU85 whole entry, stated change not applied): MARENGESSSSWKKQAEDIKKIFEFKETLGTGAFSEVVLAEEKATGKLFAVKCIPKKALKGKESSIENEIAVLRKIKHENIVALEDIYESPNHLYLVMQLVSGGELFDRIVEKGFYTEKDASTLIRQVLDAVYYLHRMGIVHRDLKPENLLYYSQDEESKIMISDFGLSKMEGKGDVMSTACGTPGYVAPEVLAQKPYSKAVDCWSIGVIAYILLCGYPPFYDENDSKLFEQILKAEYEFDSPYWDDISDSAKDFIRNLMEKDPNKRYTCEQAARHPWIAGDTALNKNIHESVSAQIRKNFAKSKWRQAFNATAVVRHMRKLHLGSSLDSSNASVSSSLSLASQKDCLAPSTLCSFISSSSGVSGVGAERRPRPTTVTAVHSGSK
Sequence of MSSK1(h) (human) (Q9UPE1 whole entry): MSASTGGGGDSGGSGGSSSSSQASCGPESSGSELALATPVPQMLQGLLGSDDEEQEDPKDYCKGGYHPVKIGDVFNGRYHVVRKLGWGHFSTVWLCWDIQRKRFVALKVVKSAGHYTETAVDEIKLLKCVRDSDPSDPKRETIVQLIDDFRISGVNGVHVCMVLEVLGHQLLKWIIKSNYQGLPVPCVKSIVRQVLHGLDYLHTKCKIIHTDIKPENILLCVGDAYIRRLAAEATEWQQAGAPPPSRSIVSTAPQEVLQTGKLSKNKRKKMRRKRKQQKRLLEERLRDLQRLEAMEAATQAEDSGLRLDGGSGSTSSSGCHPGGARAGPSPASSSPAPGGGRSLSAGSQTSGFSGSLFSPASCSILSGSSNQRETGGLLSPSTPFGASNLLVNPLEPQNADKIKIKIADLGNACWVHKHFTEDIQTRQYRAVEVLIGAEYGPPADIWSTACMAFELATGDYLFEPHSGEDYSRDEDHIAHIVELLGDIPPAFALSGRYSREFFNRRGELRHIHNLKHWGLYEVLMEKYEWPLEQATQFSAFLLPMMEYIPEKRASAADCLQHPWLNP

MMI-0500 (peptide) gave a % activity (ROCK-II(h) (human)) of 2%, a % activity (PRK2(h) (human)) of 7% and a % activity (PKCτ(h) (human)) of 7%. The % activity (Flt1(h) (human)) was 27%, the % activity (CaMKIδ(h) (human)) was 0% and the % activity (SRPK2(h) (human)) was 80%. It also gave a % activity (MSSK1(h) (human)) of 22%, a % activity (IKKβ(h) (human)) of 71% and a % activity (Met(Y1248C)(h) (human)) of 73%. It also gave a % activity (Rsk2(h) (human)) of 14%, a % activity (CDK5/p35(h) (human)) of 59% and a % activity (PKCµ(h) (human)) of 10%. For the same substance, the % activity (ACK1(h) (human)) was 64%, the % activity (EphA7(h) (human)) was 189% and the % activity (SIK(h) (human)) was 40%. It also gave a % activity (CK1δ(h) (human)) of 78%, a % activity (MuSK(h) (human)) of 27% and a % activity (PDGFRα(V561D)(h) (human)) of 146%. The % activity (IR(h), activated (human)) was 90%, the % activity (MEK1(h) (human)) was 21% and the % activity (cKit(D816V)(h) (human)) was 30%. The % activity (PAK4(h) (human)) was 86%, the % activity (MSK2(h) (human)) was 14% and the % activity (Mnk2(h) (human)) was 6%. It also gave a % activity (Lck(h) (human)) of 359%, a % activity (CSK(h) (human)) of 2% and a % activity [1] of 53%. For the same substance, the % activity (GRK7(h) (human)) was 93%, the % activity (CK2(h) (human)) was 93% and the % activity (Rsk1(h) (human)) was 34%. It also gave a % activity (GCK(h) (human)) of 30%, a % activity (Plk3(h) (human)) of 122% and a % activity (PKCβII(h) (human)) of 3%. For the same substance, the % activity (Fes(h) (human)) was 23%, the % activity (FGFR2(h) (human)) was 12% and the % activity (FAK(h) (human)) was 94%. The % activity (Bmx(h) (human)) was 45%, the % activity (PTK5(h) (human)) was 96% and the % activity (TAO2(h) (human)) was 15%. The % activity (CDK2/cyclinE(h) (human)) was 19%, the % activity (Ros(h) (human)) was 150% and the % activity (SGK3(h) (human)) was -3%. It also gave a % activity (cKit(V654A)(h) (human)) of 223%, a % activity (CDK5/p25(h) (human)) of 66% and a % activity (ULK2(h) (human)) of 124%. The % activity (Ab1(H396P)(h) (human)) was 51%, the % activity (Lck(h) activated (human)) was 76% and the % activity (Ret(h) (human)) was 174%. The % activity (PKCθ(h) (human)) was 62%, the % activity (MELK(h) (human)) was 0% and the % activity (mTOR/FKBP12(h) (human)) was 140%. It also gave a % activity (Pim-2(h) (human)) of 46%, a % activity (PAK5(h) (human)) of 125% and a % activity (EphA8(h) (human)) of 337%. For the same substance, the % activity (mTOR(h) (human)) was 135%, the % activity (PKBγ(h) (human)) was 20% and the % activity (EphB4(h) (human)) was 38%.

Substance MMI-0200 (peptide) has a % activity (ROCK-II(h) (human)) of 85%, a % activity (PRK2(h) (human)) of 74% and a % activity (PKCτ(h) (human)) of 97%. The % activity (Flt1(h) (human)) was 96%, the % activity (CaMKIδ(h) (human)) was 47% and the % activity (SRPK2(h) (human)) was 100%. It also gave a % activity (MSSK1(h) (human)) of 100%, a % activity (IKKβ(h) (human)) of 109% and a % activity (Met(Y1248C)(h) (human)) of 141%. For the same substance, the % activity (Rsk2(h) (human)) was 101%, the % activity (CDK5/p35(h) (human)) was 92% and the % activity (PKCµ(h) (human)) was 73%. The % activity (ACK1(h) (human)) was 97%, the % activity (EphA7(h) (human)) was 220% and the % activity (SIK(h) (human)) was 102%. For the same substance, the % activity (CK1δ(h) (human)) was 92%, the % activity (MuSK(h) (human)) was 106% and the % activity (PDGFRα(V561D)(h) (human)) was 106%. It also gave a % activity (IR(h), activated (human)) of 105%, a % activity (MEK1(h) (human)) of 116% and a % activity (cKit(D816V)(h) (human)) of 118%. The % activity (PAK4(h) (human)) was 98%, the % activity (MSK2(h) (human)) was 88% and the % activity (Mnk2(h) (human)) was 106%. The % activity (Lck(h) (human)) was 113%, the % activity (CSK(h) (human)) was 33% and the % activity [1] was 108%. For the same substance, the % activity (GRK7(h) (human)) was 124%, the % activity (CK2(h) (human)) was 83% and the % activity (Rsk1(h) (human)) was 102%. For the same substance, the % activity (GCK(h) (human)) was 99%, the % activity (Plk3(h) (human)) was 107% and the % activity (PKCβII(h) (human)) was 100%. It also gave a % activity (Fes(h) (human)) of 74%, a % activity (FGFR2(h) (human)) of 73% and a % activity (FAK(h) (human)) of 110%. The % activity (Bmx(h) (human)) was 76%, the % activity (PTK5(h) (human)) was 108% and the % activity (TAO2(h) (human)) was 93%. The % activity (CDK2/cyclinE(h) (human)) was 112%, the % activity (Ros(h) (human)) was 86% and the % activity (SGK3(h) (human)) was 58%. For the same substance, the % activity (cKit(V654A)(h) (human)) was 113%, the % activity (CDK5/p25(h) (human)) was 97% and the % activity (ULK2(h) (human)) was 132%. For the same substance, the % activity (Ab1(H396P)(h) (human)) was 121%, the % activity (Lck(h) activated (human)) was 90% and the % activity (Ret(h) (human)) was 96%. It also gave a % activity (PKCθ(h) (human)) of 101%, a % activity (MELK(h) (human)) of 59% and a % activity (mTOR/FKBP12(h) (human)) of 118%. For the same substance, the % activity (Pim-2(h) (human)) was 74%, the % activity (PAK5(h) (human)) was 100% and the % activity (EphA8(h) (human)) was 133%. For the same substance, the % activity (mTOR(h) (human)) was 110%, the % activity (PKBγ(h) (human)) was 103% and the % activity (EphB4(h) (human)) was 131%.
